Laboratory results published in the supplement of paper PMC10567573.

B1: PDZK1 (parent)
chain: RETASLKLLPHQPRIVEMKKGSNG
B2: DVL3 (parent)
chain: FCADNPSELPPPMERTGGIGDSRP

Variants of: B1
Assay: protein stability index of a GFP-peptide fusion (GPS, HEK-293T) (PSI 1-6); higher = more stable
Conditions: c terminus: a fixed tail appended
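Further: lentivirally expressed fusions sorted by FACS into six bins by GFP to DsRed ratio, PSI derived from sequencing read proportions per bin multiplied by bin number.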

| Variant | protein stability index |
| --- | --- |
| T3M | 3.14 |
| T3K | 3.53 |
| T3Q | 3.41 |
| T3F | 3.08 |
| T3E | 3.65 |
| T3C | 2.35 |
| T3P | 3.75 |
| T3V | 3.25 |
| T3A | 3.26 |
| T3R | 3.28 |
| T3W | 2.58 |
| T3H | 3.31 |
| T3Y | 3.02 |
| T3S | 3.62 |
| T3D | 3.39 |
| T3I | 3.6 |
| T3G | 3.27 |
| L9S | 3.26 |
| L9A | 3.39 |
| L9F | 3.26 |
| L9G | 4.12 |
| L9C | 3.75 |
| L9D | 3.33 |

| Variant | protein stability index |
| --- | --- |
| L9N | 3.79 |
| L9W | 2.76 |
| L9R | 3.63 |
| L9Y | 3 |
| L9T | 3.61 |
| L9K | 3.99 |
| L9V | 3.36 |
| L9M | 3.02 |
| L9E | 3.11 |
| L9H | 3.42 |
| L9Q | 3.5 |
| L9P | 3 |
| S5F | 1.88 |
| S5D | 3.77 |
| S5C | 3.2 |
| S5Q | 3.44 |
| S5L | 3.73 |
| S5Y | 2.47 |
| S5I | 2.82 |
| S5P | 3 |
| S5V | 3.32 |
| S5H | 2.98 |
| S5T | 3.39 |

| Variant | protein stability index |
| --- | --- |
| S5N | 2.93 |
| S5W | 2.36 |
| S5G | 3.26 |
| S5K | 2.67 |
| S5R | 3.38 |
| S5E | 3.61 |
| A4Y | 3.19 |
| A4Q | 3.29 |
| A4R | 3.88 |
| A4P | 3.8 |
| A4K | 3.79 |
| A4D | 3.15 |
| A4C | 3.12 |
| A4I | 2.47 |
| A4M | 3.27 |
| A4N | 3.81 |
| A4T | 3.32 |
| A4F | 2.66 |
| A4E | 3.43 |
| A4V | 3.21 |
| A4G | 3.17 |
| A4W | 2.37 |
| A4S | 3.17 |

| Variant | protein stability index |
| --- | --- |
| A4L | 3.05 |
| K7Q | 4.74 |
| K7D | 4.97 |
| K7S | 4.29 |
| K7N | 4.86 |
| K7C | 3.89 |
| K7P | 4.67 |
| K7R | 4.05 |
| K7M | 3.9 |
| K7W | 2.72 |
| K7I | 3.68 |
| K7V | 3.95 |
| K7T | 4.66 |
| K7A | 4.19 |
| K7F | 3.07 |
| K7L | 3.98 |
| K7Y | 3.4 |
| K7G | 4.32 |
| L8S | 3.7 |
| L8V | 3.92 |
| L8W | 3.21 |
| L8M | 2.75 |
| L8Q | 4.16 |

| Variant | protein stability index |
| --- | --- |
| L8C | 3.38 |
| L8I | 3.34 |
| L8N | 2.96 |
| L8F | 3.65 |
| L8P | 4.25 |
| L8Y | 3.17 |
| L8G | 3.42 |
| L8H | 2.81 |
| L8K | 3.63 |
| L8E | 3.77 |
| L8D | 3.4 |
| L8R | 3.89 |
| L8A | 3.56 |
| P10H | 2.54 |
| P10S | 3.48 |
| P10L | 2.88 |
| P10D | 3.21 |
| P10E | 3.14 |
| P10F | 2.08 |
| P10A | 3.5 |
| P10Y | 2.99 |
| P10K | 3.62 |
| P10M | 2.89 |

| Variant | protein stability index |
| --- | --- |
| P10I | 2.43 |
| P10V | 2.76 |
| P10T | 2.98 |
| P10G | 3.38 |
| P10W | 2.82 |
| P10Q | 3.02 |
| P10R | 3.56 |
| L6D | 3.53 |
| L6G | 3.69 |
| L6R | 3.37 |
| L6H | 3.56 |
| L6E | 3.95 |
| L6Q | 3.9 |
| L6T | 3.63 |
| L6A | 3.66 |
| L6P | 4.18 |
| L6F | 3.15 |
| L6V | 3.54 |
| L6M | 3.55 |
| L6K | 3.64 |
| L6N | 4 |
| L6W | 2.98 |
| L6Y | 3.56 |

| Variant | protein stability index |
| --- | --- |
| L6I | 3.48 |
| L6S | 4.01 |
| E2V | 2.62 |
| E2Q | 3.73 |
| E2P | 3.65 |
| E2I | 2.23 |
| E2M | 3.08 |
| E2D | 3.4 |
| E2Y | 2.64 |
| E2K | 3.58 |
| E2A | 2.73 |
| E2F | 3.45 |
| E2W | 2.36 |
| E2T | 3.39 |
| E2R | 3.63 |
| E2S | 3.62 |
| E2C | 2.1 |
| E2N | 3.57 |
| H11G | 3.38 |
| H11I | 3.59 |
| H11F | 3.27 |
| H11L | 3.14 |
| H11E | 3.08 |

| Variant | protein stability index |
| --- | --- |
| H11C | 3.47 |
| H11D | 2.35 |
| H11K | 3.53 |
| H11A | 2.57 |
| R1Y | 3.14 |
| R1H | 3.14 |
| R1P | 3.24 |
| R1D | 3.19 |
| R1W | 2.09 |
| R1G | 2.8 |
| R1L | 3.65 |
| R1N | 3.8 |
| R1A | 3.58 |
| R1F | 2.99 |
| R1C | 3.34 |
| R1V | 3.14 |
| R1E | 3.36 |
| R1M | 2.38 |
| R1K | 3.67 |
| R1S | 3.41 |
| R1Q | 3.4 |
| R1T | 2.98 |

Variants of: B2
Assay: as above
Conditions: c terminus: a fixed tail appended

| Variant | protein stability index |
| --- | --- |
| R23F | 3.55 |
| R23E | 4.95 |
| R23C | 4.59 |
| R23Q | 4.56 |
| R23K | 4.94 |
| R23H | 5.02 |
| R23T | 5.04 |
| R23A | 4.89 |
| R23V | 4.46 |
| R23L | 3.74 |
| R23W | 2.21 |
| R23D | 5.18 |
| R23G | 4.72 |
| R23N | 5.22 |
| R23Y | 4.15 |
| R23M | 4.12 |
| R23S | 4.75 |
| R23I | 4.18 |
| I19T | 4.31 |
| I19S | 5.22 |
| I19W | 3.51 |
| I19M | 4.8 |
| I19N | 4.82 |
| I19E | 5.77 |
| I19D | 4.94 |
| I19A | 5.33 |

| Variant | protein stability index |
| --- | --- |
| I19C | 4.94 |
| I19Y | 4.35 |
| I19F | 4.37 |
| I19R | 4.74 |
| I19K | 5.59 |
| I19H | 5.16 |
| I19Q | 4.65 |
| I19V | 5.09 |
| S22L | 4.4 |
| S22H | 4.34 |
| S22Y | 4.23 |
| S22N | 5.01 |
| S22M | 4.09 |
| S22D | 4.88 |
| S22R | 4.29 |
| S22A | 4.61 |
| S22Q | 5.11 |
| S22G | 4 |
| S22F | 3.28 |
| S22I | 4 |
| S22W | 3.97 |
| S22T | 4.7 |
| S22K | 4.77 |
| S22V | 4.15 |
| S22P | 4.63 |
| S22E | 5.23 |

| Variant | protein stability index |
| --- | --- |
| S22C | 3.55 |
| T16S | 4.25 |
| T16P | 3.87 |
| T16W | 2.55 |
| T16V | 4.02 |
| T16R | 4.5 |
| T16Q | 5 |
| T16Y | 3.96 |
| G18T | 4.47 |
| G18S | 4.64 |
| G18L | 4.34 |
| G18F | 4.03 |
| G18C | 4.57 |
| G18A | 4.49 |
| G18K | 4.88 |
| G18E | 5.06 |
| G18M | 4.17 |
| G18V | 4 |
| G18R | 4.34 |
| G18Q | 4.81 |
| G18Y | 3.38 |
| G18D | 4.77 |
| G18W | 3.41 |
| G18N | 4.89 |
| G18H | 4.34 |
| G18P | 4.04 |

| Variant | protein stability index |
| --- | --- |
| G18I | 4.05 |
| G17R | 4.62 |
| G17T | 4.48 |
| G17K | 4.89 |
| G17A | 4.51 |
| G17S | 4.3 |
| G17H | 4.69 |
| G17F | 3.79 |
| G17V | 4.12 |
| G17I | 4.09 |
| G17E | 4.54 |
| G17D | 4.61 |
| G17Y | 3.91 |
| G17L | 4.12 |
| G17N | 4.74 |
| G17P | 4.85 |
| G17Q | 4.73 |
| G17M | 4.48 |
| P24C | 4.39 |
| P24D | 4.86 |
| P24M | 3.65 |
| P24H | 4.66 |
| P24A | 3.79 |
| P24V | 4.55 |
| P24Y | 3.6 |
| P24L | 3.96 |

| Variant | protein stability index |
| --- | --- |
| P24W | 3.23 |
| P24R | 5.16 |
| P24N | 4.6 |
| P24K | 4.92 |
| P24Q | 4.58 |
| P24E | 5.45 |
| P24I | 4.32 |
| P24T | 4.12 |
| P24S | 4.73 |
| P24G | 4.71 |
| P24F | 3.82 |
| G20E | 4.53 |
| G20K | 4.32 |
| G20H | 4.18 |
| G20Q | 4.79 |
| G20N | 4.54 |
| G20A | 4.68 |
| G20T | 4.66 |
| G20I | 4.48 |
| G20Y | 3.45 |
| G20P | 5.08 |
| G20S | 4.4 |
| G20F | 3.78 |
| G20C | 4.12 |
| G20L | 3.76 |
| G20M | 4.18 |

| Variant | protein stability index |
| --- | --- |
| G20D | 4.51 |
| G20V | 4.49 |
| G20R | 3.83 |
| D21R | 3.71 |
| D21W | 2.97 |
| D21G | 4.36 |
| D21A | 4.36 |
| D21H | 4.37 |
| D21M | 3.67 |
| D21P | 4.16 |
| D21L | 3.48 |
| D21K | 4.21 |
| D21S | 4.35 |
| D21N | 4.11 |
| D21E | 5.27 |
| D21F | 3.89 |
| D21Q | 4.58 |
| D21T | 4.52 |
| D21I | 3.77 |
| D21C | 3.98 |
| D21Y | 3.92 |
